In the assay the target is human CD3 on Jurkat cells (Homo sapiens (endogenous, Jurkat), UniProt P07766;P04234). Kind of assay: flow cytometry on cells.
human CD3 on Jurkat cells, sequence (P04234 whole entry, looked up, chain 1 of 2): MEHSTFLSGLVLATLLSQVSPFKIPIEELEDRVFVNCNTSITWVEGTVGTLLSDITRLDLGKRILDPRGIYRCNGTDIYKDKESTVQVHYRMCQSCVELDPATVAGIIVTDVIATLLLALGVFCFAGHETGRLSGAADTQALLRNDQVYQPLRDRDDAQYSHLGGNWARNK
human CD3 on Jurkat cells, sequence (P07766 23-207, looked up, chain 2 of 2): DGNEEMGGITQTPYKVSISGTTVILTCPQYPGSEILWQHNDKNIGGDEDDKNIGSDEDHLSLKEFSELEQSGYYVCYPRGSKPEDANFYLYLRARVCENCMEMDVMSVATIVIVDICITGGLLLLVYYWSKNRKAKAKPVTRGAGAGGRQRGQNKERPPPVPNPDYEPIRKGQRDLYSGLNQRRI

B1: R11 scFv-Fc (homodimeric monospecific anti-ROR1 scFv-Fc) (Fc fusion)
VH: QSVKESEGDLVTPAGNLTLTCTASGSDINDYPISWVRQAPGKGLEWIGFINSGGSTWYASWVKGRFTISRTSTTVDLKMTSLTTDDTATYFCARGYSTYYGDFNIWGPGTLVTISS
VL: ELVMTQTPSSTSGAVGGTVTINCQASQSIDSNLAWFQQKPGQPPTLLIYRASNLASGVPSRFSGSRSGTEYTLTISGVQREDAATYYCLGGVGNVSYRTSFGGGTEVVVK
Regarding B1, the binding result is recorded as “no binding (tested: 5 μg/mL)”.

Source of the values: paper doi:10.1101/219402 (bioRxiv, 2017).
